Values quoted from earlier work as cited in article PMC3577484.
Where “and” joins values, the source holds several entries; their conditions need not be identical. Equal values may be shown once.

Target: insulin receptor (Xenopus laevis) (UniProt Q9PVZ4)
Test: Scatchard radioligand binding

Sequence of UniProt Q9PVZ4 (Q9PVZ4 759-1362): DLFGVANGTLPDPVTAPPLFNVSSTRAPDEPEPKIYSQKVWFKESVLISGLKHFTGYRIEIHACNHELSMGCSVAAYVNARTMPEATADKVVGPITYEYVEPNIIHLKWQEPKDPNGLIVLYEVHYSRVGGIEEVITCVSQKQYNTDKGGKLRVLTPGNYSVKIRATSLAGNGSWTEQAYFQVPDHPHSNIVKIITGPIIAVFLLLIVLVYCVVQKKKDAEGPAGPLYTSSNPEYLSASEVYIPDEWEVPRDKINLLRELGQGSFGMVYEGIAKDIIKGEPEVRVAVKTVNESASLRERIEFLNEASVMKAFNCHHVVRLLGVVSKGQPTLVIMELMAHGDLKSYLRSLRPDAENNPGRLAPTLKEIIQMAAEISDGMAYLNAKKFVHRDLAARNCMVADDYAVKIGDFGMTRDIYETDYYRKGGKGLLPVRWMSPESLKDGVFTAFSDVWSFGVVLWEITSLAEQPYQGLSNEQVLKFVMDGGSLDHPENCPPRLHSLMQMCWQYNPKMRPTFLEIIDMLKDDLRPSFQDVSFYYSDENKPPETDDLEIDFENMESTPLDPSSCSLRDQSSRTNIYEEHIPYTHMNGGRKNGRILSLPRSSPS
Sequence of insulin (F8WCM5 25-54): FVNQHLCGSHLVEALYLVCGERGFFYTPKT
Sequence of insulin (P01308 90-110, further chain): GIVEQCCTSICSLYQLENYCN

Kd: 0.886 nM and 5.32 nM
Substance: insulin (from UniProt P01308)
